Target: FGFR1β (IIIc)/Fc chimera
Test: SPR; BIAcore 2000, 25 °C, 10 mM PBS pH 7.4; about 1000 RU FGFR1β (IIIc)/Fc and 750 RU human IgG1 Fc (control cell) immobilised on a CM4 chip by amine coupling; NCAM2 domains injected at 20-30 μl/min; steady state affinity fit, Kd roughly estimated

recombinant human NCAM2 FnIII2 domain (from UniProt O15394 592-693) (domain or fragment)
Kd: 4400 nM

NCAM2 FnIII1-2 domains expressed from P. pastoris (domain or fragment)
Kd: 400 nM

B1: recombinant human NCAM2 FnIII1-2 double domain (expressed in E. coli) (domain or fragment)
chain: SPYGVKIIELSQTTAKVSFNKPDSHGGVPIHHYQVDVKEVASEIWKIVRSHGVQTMVVLNNLEPNTTYEIRVAAVNGKGQGDYSKIEIFQTLPVREPSPPSIHGQPSSGKSFKLSITKQDDGGAPILEYIVKYRSKDKEDQWLEKKVQGNKDHIILEHLQWTMGYEVQITAANRLGYSEPTVYEFSMPPKPNIIKD
Kd: 130 nM

B2: recombinant human NCAM2 FnIII1 domain (domain or fragment)
chain: SPYGVKIIELSQTTAKVSFNKPDSHGGVPIHHYQVDVKEVASEIWKIVRSHGVQTMVVLNNLEPNTTYEIRVAAVNGKGQGDYSKIEIFQTLPV
Kd: 290 nM

From PMC5997747
